Data from US9102922B2, “Trehalose phosphorylases and their use in the biocatalytic production of trehalose-analogues and glycosyl phosphates” (Universiteit Gent, priority 2010, dated 2015).
Residue numbers refer to the chain shown, from its start. Numbers in names are those of the source.

B1: TP from C. pacificum (Caldanaerobacter subterraneus subsp. tengcongensis MB4) (protein)
chain: MDMVKKTKKPIYPFEDWTIRETEFSIETNYRNETIFAQANGYMGMRGNFEEGYSGPDGTSLKGTYINGFYEIHDIIYPEGGYGFAKTGQTMLNVADSKIIELYVGEEKFDLLKGKIHFYERVLDMKKGCVERKIKWESPSGKIVNVKIKRIVSLQRQHLAVISFSVEPVNFTGNIKFVSAIDGDVRNITESEDVRVGSNLKGRVLETVERGTNGFEGWISQKTQKSNLSYTCAMKNELIGTEKYEVLNNVKEDRVEVAVAFKAEKNRVYILNKFISYYTSKDCDKSETMKLALEEVRRAQEDGFCKIEKEQEEFLQSFWEDADVVIEGDKALQQGIRFNMFHLLQSVGRDGKTNIAAKGLTGEGYEGHYFWDSDIYILPFFLYTKPEIAKALIMYRYNLLDAARNRAKELGHKGALYPWRTIDGPECSAYFPAGTAQYHINADIVYALKKYVEATNDLDFLYDYGCEIVFETARFWEDLGAYIPLKGNKFCINTVTGPDEYTALVDNNAYTNYMAKMNLEYAYDIANKMKKEVPEKYQKVASKLNLKDEEIASWKRAANNMYLPYSEELDIIPQDDSFLYKERITVDEIPEDQFPLLLHWHYLNIYRYQICKQPDVLLLMFLQREKFTIEQLKKNFDYYEPITTHDSSLSPAIFSILANEIGYTDKAYKYFMMTARMDLDDYNDNVKDGIHAAAMAGSWSAVVNGFGGMRVYTDELHFTPGLPEGWKMLSFNVKYKGRKINVKLTHEESVFTLLEGEPIEIFYFDRRVLIKSGENILKGYEEK
B2: K450N: CsTP with mutation K450N (protein, listed as Caldanaerobacter subterraneus)
chain: B1 chain with K450N

Tests used:
[1] = Kinetic parameters of TP variants on glucose as acceptor; type: biochemical; conditions: Glc as acceptor; 60° C. and pH 6
Procedure: (§1) […] The synthetic activity of the enzyme was determined using a discontinuous assay in which the released phosphate is complexed by molybdate and ascorbic acid (Gawronski and Benson, 2004). […] Site-saturation mutagenesis was performed with degenerate primers (NNK) as described by […] et al. (2008), and random mutagenesis was performed with the GeneMorph II EZClone Domain Mutagenesis Kit (Stratagene) according to the manufacturer's instructions. The resulting DNA libraries were transformed into E. coli XL10-Gold, after which the cells were grown on solid LB medium in a Petri dish. Colonies were then transferred to 96-well microtiter plates containing liquid LB medium, in which enzyme expression was induced. Enzyme was extracted by the addition of lysis buffer with a liquid handling robot (Freedom EVO 200, Tecan) and the crude cell extracts were used for enzyme screening. Acceptor screening was performed with the phosphomolybdate assay described above. […] The clones with the highest activity were sequenced to identify the introduced mutations. The improved enzyme variants were then produced and purified as described for the wild-type enzyme, to allow a more detailed characterization.

[2] = Donor specificity: phosphorolysis of lactotrehalose by CsTP variants (release of βGal1P and βGlc1P); type: biochemical
[3] = substrate: OC[C@H]1OC(O)[C@H](O)[C@@H](O)[C@@H]1O; test: Synthetic activity of TP on monosaccharide acceptors (released phosphate, molybdate assay); type: biochemical, Carboxydibrachium pacificum; conditions: other: 60° C. and pH 6
[4] = Thermostability of the enzyme (residual activity after incubation); type: physicochemical; conditions: 1 hour incubation at 65° C.
[5] = Kinetic parameters of TP variants on galactose as acceptor; type: biochemical; conditions: Gal as acceptor; 60° C. and pH 6
Procedure: as §1

[6] = Phosphorolytic activity of the enzyme: specific activity, optimal pH and temperature; type: biochemical
Procedure: The phosphorolytic activity of the enzyme was determined using a discontinuous assay in which the released glucose is converted by glucose oxidase and peroxidase (GOD-POD)(Werner et al., 1970). The activity was assayed in 30 mM phosphate buffer at pH 7 and 60° C., using 30 mM disaccharide as substrate. The synthetic activity of the enzyme was determined using a discontinuous assay in which the released phosphate is complexed by molybdate and ascorbic acid (Gawronski and Benson, 2004). The activity was assayed in 50 mM MES buffer at pH 6 and 60° C., using 30 mM β-glucose-1-phosphate as donor and 500 mM of acceptor substrates.

[7] = Specific activity of TP variant on mannose as acceptor; type: biochemical; conditions: compared with wild-type CsTP
Procedure: The activity was assayed in 30 mM phosphate buffer at pH 7 and 60° C., using 30 mM disaccharide as substrate. The synthetic activity of the enzyme was determined using a discontinuous assay in which the released phosphate is complexed by molybdate and ascorbic acid (Gawronski and Benson, 2004). […] Site-saturation mutagenesis was performed with degenerate primers (NNK) as described by […] et al. (2008), and random mutagenesis was performed with the GeneMorph II EZClone Domain Mutagenesis Kit (Stratagene) according to the manufacturer's instructions. The resulting DNA libraries were transformed into E. coli XL10-Gold, after which the cells were grown on solid LB medium in a Petri dish. Colonies were then transferred to 96-well microtiter plates containing liquid LB medium, in which enzyme expression was induced. Enzyme was extracted by the addition of lysis buffer with a liquid handling robot (Freedom EVO 200, Tecan) and the crude cell extracts were used for enzyme screening. Acceptor screening was performed with the phosphomolybdate assay described above. […] The clones with the highest activity were sequenced to identify the introduced mutations. The improved enzyme variants were then produced and purified as described for the wild-type enzyme, to allow a more detailed characterization.

[8] = 100 mM lactotrehalose, pH 7 and 60° C.

Molecule	Km [1] [mM]	kcat [1] [s⁻¹]	donor preference in phosphorolysis of lactotrehalose [2]	Ratio βGal1P/βGlc1P [2, 8]	Release of βGal1P [2, 8] [U/mg]	Release of βGlc1P [2, 8] [U/mg]	Km [3] [mM]	kcat [3] [s⁻¹]	kcat/Km [3] [M⁻¹ s⁻¹]	activity retained after incubation [4] [%]	kcat [5] [s⁻¹]	optimal pH for phosphorolytic activity [6]	optimal temperature for phosphorolytic activity [6] [°C]	specific activity ([6]; phosphorolysis of trehalose) [U/mg]	change in specific activity on mannose as acceptor [7]
B1	3.5	59	almost exclusively produces β-Glc1P	0.04	0.13	3.0	3.5 ± 0.7	59 ± 5.4	17000 ± 4000	100	54	7	80	39.8±3.5	
B2															significantly increases
